The nature of the data set: background-corrected fluorescence of 3'-dye-labeled ssDNA relative to brightest sequence (3'-GCGCG) (fraction); higher = brighter dye fluorescence (less quenching). An outline of the steps: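 Light-directed phosphoramidite synthesis on glass slides produced single-stranded DNA carrying a 3' Cy3 or Cy5 dye next to each of 1024 permuted pentamers. After a 2 h acetonitrile wash at r.t., arrays were scanned at 532 or 635 nm both before and after overnight deprotection in ethylenediamine/ethanol. Every value is the mean of 10 features per array over at least 3 syntheses. Fluorescence had unlabeled-oligo background subtracted and was scaled to the brightest sequence.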

29 sequences from the supplement of paper PMC9428881 can be followed below.

± gives the standard error.

For the sequence “TTTTTTGATCAGCATGAGCATTTTTTTTTTTTTTTCGTCT [TCTGC]”, the background-corrected fluorescence reads like this: (dye: Cy3 (3' terminal)) 0.485 ± 0.02; (dye: Cy5 (3' terminal)) 0.36 ± 0.015.
For “TTTTTTGAGCATGAGCATCATTTTTTTTTTTTTTTCTCTG [GTCTC]”, the background-corrected fluorescence by setting is: (dye: Cy3 (3' terminal)) 0.48 ± 0.018; (dye: Cy5 (3' terminal)) 0.352 ± 0.033.
The matching figures for “TTTTTTGCTGCTGCTCAGCATTTTTTTTTTTTTTTAAAGT [TGAAA]”: 0.653 ± 0.026 and 0.514 ± 0.049.
On the same counts, the results for “TTTTTTGCTCATGCGCATGATTTTTTTTTTTTTTTAGATC [CTAGA]” are 0.464 ± 0.013 and 0.359 ± 0.023.
As to “TTTTTTCAGCATGCTGCTCATTTTTTTTTTTTTTTGTAAG [GAATG]”, the background-corrected fluorescence by setting is: (dye: Cy3 (3' terminal)) 0.582 ± 0.038; (dye: Cy5 (3' terminal)) 0.462 ± 0.069.
The matching figures for “TTTTTTCATCATGCTGATGATTTTTTTTTTTTTTTGGACC [CCAGG]”: 0.446 ± 0.022 and 0.317 ± 0.023.
On the same counts, the results for “TTTTTGCAGCAGCATGATCATTTTTTTTTTTTTTTTTTCG [GCTTT]” are 0.468 ± 0.011 and 0.327 ± 0.027.
Consider “TTTTTTGAGCATCAGCATGCTTTTTTTTTTTTTTTCTGTA [ATGTC]”, for which the background-corrected fluorescence (dye: Cy3 (3' terminal)) was determined as 0.571 ± 0.019 and the background-corrected fluorescence (dye: Cy5 (3' terminal)) turned out to be 0.429 ± 0.072.
“TTTTTTCATGCTGCTGAGCATTTTTTTTTTTTTTTGAACT [TCAAG]”: the background-corrected fluorescence runs as follows: (dye: Cy3 (3' terminal)) 0.5 ± 0.016; (dye: Cy5 (3' terminal)) 0.36 ± 0.025.
On the same counts, the results for “TTTTTTGATGATCAGCATGCTTTTTTTTTTTTTTTCCGTA [ATGCC]” are 0.546 ± 0.025 and 0.436 ± 0.028.
On the same counts, the results for “TTTTTGCATCAGCAGCATGCTTTTTTTTTTTTTTTTGTTA [ATTGT]” are 0.51 ± 0.02 and 0.415 ± 0.023.
The matching figures for “TTTTTTGATGATGAGCAGCATTTTTTTTTTTTTTTCCCTT”: 0.452 ± 0.011 and 0.359 ± 0.025.
Turning to “TTTTTTCATGATCATCAGCATTTTTTTTTTTTTTTGCGGT [TGGCG]”, the background-corrected fluorescence is 0.743 ± 0.026 (dye: Cy3 (3' terminal)) and 0.566 ± 0.036 (dye: Cy5 (3' terminal)).
Regarding “TTTTTTCATCATCATGCTGATTTTTTTTTTTTTTTGGGAC [CAGGG]”, the background-corrected fluorescence is 0.536 ± 0.029 (dye: Cy3 (3' terminal)) and 0.401 ± 0.025 (dye: Cy5 (3' terminal)).
The matching figures for “TTTTTTGATCATGCTGCTCATTTTTTTTTTTTTTTCGAAG [GAAGC]”: 0.609 ± 0.013 and 0.463 ± 0.021.
In the case of “TTTTTTGCGCAGCATGCTGATTTTTTTTTTTTTTTATTAC [CATTA]”, the background-corrected fluorescence is 0.405 ± 0.022 (dye: Cy3 (3' terminal)) and 0.334 ± 0.032 (dye: Cy5 (3' terminal)).
Regarding “TTTTTGCATCATGATCATCATTTTTTTTTTTTTTTTGCGG [GGCGT]”, the background-corrected fluorescence runs as follows: (dye: Cy3 (3' terminal)) 0.603 ± 0.016; (dye: Cy5 (3' terminal)) 0.543 ± 0.032.
In turn, “TTTTTGCATGATGCTGATGCTTTTTTTTTTTTTTTTCACA [ACACT]” came in with a background-corrected fluorescence (dye: Cy3 (3' terminal)) of 0.485 ± 0.015 and a background-corrected fluorescence (dye: Cy5 (3' terminal)) of 0.379 ± 0.034.
The matching figures for “TTTTTTGATCATCAGCATGATTTTTTTTTTTTTTTCGGTC [CTGGC]”: 0.506 ± 0.035 and 0.407 ± 0.042.
The matching figures for “TTTTTTGATGATGCGCATCATTTTTTTTTTTTTTTCCATG [GTACC]”: 0.542 ± 0.026 and 0.361 ± 0.035.
On the same counts, the results for “TTTTTTCATGCTGATCATGCTTTTTTTTTTTTTTTGACGA [AGCAG]” are 0.642 ± 0.026 and 0.52 ± 0.025.
For the sequence “TTTTTTCAGCATCATCATGATTTTTTTTTTTTTTTGTGGC [CGGTG]”, the background-corrected fluorescence reads like this: (dye: Cy3 (3' terminal)) 0.572 ± 0.011; (dye: Cy5 (3' terminal)) 0.439 ± 0.041.
The matching figures for “TTTTTGCATGATGCTGATCATTTTTTTTTTTTTTTTCACG [GCACT]”: 0.491 ± 0.03 and 0.399 ± 0.022.
“TTTTTGCATGCTCATGCTCATTTTTTTTTTTTTTTTAGAG [GAGAT]” yielded a background-corrected fluorescence (dye: Cy3 (3' terminal)) of 0.591 ± 0.014 and a background-corrected fluorescence (dye: Cy5 (3' terminal)) of 0.477 ± 0.059.
With “TTTTTTCAGCAGCATCATGCTTTTTTTTTTTTTTTGTTGA [AGTTG]”, the background-corrected fluorescence is, setting by setting: (dye: Cy3 (3' terminal)) 0.632 ± 0.027; (dye: Cy5 (3' terminal)) 0.548 ± 0.046.
Turning to “TTTTTTGCTGATCATGATCATTTTTTTTTTTTTTTACGCG [GCGCA]”, the background-corrected fluorescence by setting is: (dye: Cy3 (3' terminal)) 0.973 ± 0.017; (dye: Cy5 (3' terminal)) 0.876 ± 0.027.
Consider “TTTTTTCATCATGAGCAGCATTTTTTTTTTTTTTTGGCTT [TTCGG]”, for which the background-corrected fluorescence (dye: Cy3 (3' terminal)) was 0.558 ± 0.029 and the background-corrected fluorescence (dye: Cy5 (3' terminal)) worked out at 0.405 ± 0.023.
The matching figures for “TTTTTTCATGATGATGATGATTTTTTTTTTTTTTTGCCCC [CCCCG]”: 0.32 ± 0.038 and 0.272 ± 0.012.
As for “TTTTTGCATCAGCATCATGATTTTTTTTTTTTTTTTGTGC [CGTGT]”, the background-corrected fluorescence reads like this: (dye: Cy3 (3' terminal)) 0.494 ± 0.0099; (dye: Cy5 (3' terminal)) 0.402 ± 0.027.
